Literature values as cited in paper PMC2790341.

Legend:
NRP1 (Homo sapiens) = NRP1 (Homo sapiens) (UniProt O14786)
VEGFR1 (Homo sapiens) = VEGFR1 (Homo sapiens) (UniProt P17948)
VEGFR2 (Homo sapiens) = VEGFR2 (Homo sapiens) (UniProt P35968)
Sequence of UniProt P35968 (P35968 20-1356): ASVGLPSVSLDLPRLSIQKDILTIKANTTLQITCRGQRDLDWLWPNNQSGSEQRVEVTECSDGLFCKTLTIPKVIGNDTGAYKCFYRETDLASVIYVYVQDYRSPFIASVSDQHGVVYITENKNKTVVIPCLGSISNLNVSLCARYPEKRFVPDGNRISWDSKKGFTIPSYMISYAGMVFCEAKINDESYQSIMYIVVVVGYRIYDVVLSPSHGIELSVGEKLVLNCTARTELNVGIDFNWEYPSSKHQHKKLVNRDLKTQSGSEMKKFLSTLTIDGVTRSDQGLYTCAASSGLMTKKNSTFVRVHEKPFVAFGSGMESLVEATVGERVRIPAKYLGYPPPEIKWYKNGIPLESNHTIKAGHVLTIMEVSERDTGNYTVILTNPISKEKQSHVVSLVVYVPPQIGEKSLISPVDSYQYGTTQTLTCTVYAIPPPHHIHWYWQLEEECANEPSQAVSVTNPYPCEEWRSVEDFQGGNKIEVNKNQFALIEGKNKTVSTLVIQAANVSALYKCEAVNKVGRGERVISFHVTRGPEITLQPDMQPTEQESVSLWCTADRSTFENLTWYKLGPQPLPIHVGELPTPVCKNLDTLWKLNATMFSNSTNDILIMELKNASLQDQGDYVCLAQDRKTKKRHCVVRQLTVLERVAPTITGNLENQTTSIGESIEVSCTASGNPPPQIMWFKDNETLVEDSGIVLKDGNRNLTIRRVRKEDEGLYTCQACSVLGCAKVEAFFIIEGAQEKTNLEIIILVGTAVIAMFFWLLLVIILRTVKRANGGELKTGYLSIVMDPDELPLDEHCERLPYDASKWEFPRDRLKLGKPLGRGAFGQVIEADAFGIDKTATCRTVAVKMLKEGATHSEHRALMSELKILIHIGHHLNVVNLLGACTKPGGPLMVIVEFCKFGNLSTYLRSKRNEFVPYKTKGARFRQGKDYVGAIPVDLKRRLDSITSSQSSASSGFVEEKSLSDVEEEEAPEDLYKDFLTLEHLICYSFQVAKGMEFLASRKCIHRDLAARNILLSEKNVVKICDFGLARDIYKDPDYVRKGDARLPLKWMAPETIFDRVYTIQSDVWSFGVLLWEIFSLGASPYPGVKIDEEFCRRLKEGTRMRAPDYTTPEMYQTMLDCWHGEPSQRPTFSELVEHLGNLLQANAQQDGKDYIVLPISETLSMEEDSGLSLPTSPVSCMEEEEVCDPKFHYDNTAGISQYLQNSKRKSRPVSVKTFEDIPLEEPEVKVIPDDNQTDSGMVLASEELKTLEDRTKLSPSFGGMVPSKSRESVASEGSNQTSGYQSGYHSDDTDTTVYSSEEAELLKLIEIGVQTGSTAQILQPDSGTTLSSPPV

Sequence of UniProt O14786 (O14786 22-923): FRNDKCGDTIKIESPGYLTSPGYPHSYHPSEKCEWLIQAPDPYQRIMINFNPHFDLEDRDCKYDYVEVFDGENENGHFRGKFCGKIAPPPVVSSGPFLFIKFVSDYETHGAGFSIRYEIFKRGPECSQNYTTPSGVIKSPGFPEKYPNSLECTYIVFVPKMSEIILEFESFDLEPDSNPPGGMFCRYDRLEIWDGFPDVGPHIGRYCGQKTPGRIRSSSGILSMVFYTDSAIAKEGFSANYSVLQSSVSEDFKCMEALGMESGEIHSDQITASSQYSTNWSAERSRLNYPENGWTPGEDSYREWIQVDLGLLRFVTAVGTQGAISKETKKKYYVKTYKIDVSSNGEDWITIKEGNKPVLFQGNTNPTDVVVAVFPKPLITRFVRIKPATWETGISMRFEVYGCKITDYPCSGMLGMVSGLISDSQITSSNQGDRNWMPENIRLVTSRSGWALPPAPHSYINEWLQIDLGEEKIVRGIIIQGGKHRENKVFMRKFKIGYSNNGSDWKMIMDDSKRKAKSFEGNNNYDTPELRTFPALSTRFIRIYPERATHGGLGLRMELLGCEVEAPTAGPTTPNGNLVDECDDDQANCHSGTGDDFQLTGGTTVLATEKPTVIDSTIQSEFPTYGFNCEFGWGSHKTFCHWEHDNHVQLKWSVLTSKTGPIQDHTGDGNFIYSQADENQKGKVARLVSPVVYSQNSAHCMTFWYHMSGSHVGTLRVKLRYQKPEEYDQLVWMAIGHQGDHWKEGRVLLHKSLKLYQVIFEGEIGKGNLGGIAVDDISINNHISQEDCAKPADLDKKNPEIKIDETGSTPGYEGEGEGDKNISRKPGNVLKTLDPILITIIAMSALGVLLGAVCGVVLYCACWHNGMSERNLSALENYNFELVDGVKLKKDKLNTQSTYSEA
Sequence of UniProt P17948 (P17948 27-1338): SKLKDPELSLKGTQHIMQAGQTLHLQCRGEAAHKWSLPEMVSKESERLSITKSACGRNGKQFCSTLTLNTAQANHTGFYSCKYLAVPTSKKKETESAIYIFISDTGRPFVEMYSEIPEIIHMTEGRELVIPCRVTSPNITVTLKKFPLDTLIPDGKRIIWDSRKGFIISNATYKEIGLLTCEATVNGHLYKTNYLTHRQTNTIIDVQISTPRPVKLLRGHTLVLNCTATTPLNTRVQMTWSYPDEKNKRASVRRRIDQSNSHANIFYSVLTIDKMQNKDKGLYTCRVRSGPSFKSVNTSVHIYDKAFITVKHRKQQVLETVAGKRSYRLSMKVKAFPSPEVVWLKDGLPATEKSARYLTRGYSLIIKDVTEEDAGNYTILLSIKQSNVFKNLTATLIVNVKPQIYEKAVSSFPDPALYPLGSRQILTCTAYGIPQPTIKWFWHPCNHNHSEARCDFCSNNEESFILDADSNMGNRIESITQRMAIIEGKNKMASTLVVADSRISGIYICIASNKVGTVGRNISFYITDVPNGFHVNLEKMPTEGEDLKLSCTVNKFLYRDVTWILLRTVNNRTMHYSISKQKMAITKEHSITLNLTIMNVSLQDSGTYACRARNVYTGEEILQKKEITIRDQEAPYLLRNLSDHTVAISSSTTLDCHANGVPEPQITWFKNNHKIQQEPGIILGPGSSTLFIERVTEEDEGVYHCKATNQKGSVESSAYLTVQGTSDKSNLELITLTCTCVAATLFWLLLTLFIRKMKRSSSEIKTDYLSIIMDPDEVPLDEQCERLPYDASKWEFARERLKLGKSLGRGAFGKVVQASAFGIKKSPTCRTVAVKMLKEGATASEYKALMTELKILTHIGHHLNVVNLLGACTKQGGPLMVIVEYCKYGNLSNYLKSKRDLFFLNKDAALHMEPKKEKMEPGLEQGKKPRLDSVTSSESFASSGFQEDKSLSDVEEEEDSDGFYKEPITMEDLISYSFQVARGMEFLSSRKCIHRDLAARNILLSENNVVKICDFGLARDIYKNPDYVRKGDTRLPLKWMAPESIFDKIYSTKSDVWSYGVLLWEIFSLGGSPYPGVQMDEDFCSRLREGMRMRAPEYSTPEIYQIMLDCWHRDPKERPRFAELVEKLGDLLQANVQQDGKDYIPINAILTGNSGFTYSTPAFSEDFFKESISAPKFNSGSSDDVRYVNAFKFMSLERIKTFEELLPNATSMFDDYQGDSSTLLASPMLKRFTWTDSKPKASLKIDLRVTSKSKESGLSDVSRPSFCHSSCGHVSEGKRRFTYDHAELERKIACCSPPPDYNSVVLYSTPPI

Substance	Kd (NRP1 (Homo sapiens))	Kd (VEGFR1 (Homo sapiens))	Kd (VEGFR2 (Homo sapiens))
VEGF165 (from UniProt P15692)	0.312 nM		
VEGF (from UniProt P15692)		0.033 nM	0.1 nM
